Test results: the Human Domainome abundance scans (Beltran et al. 2025)
± gives the uncertainty stated by the source.

B1: Kinesin-like protein KIF16B, residues 1213 to 1273; numbered along this chain, Q96L93 (parent)
chain: ETWTVFRRYSRFREMHKTLKLKYAELAALEFPPKKLFGNKDERVIAERRSHLEKYLRDFFS

Variants of: B1
Test: abundance fitness (aPCA) (normalised: wild type 0, dead -1); higher = more abundant; growth selection in yeast, the domain comes from the species named
Conditions: Homo sapiens

Row | Variant | abundance fitness
1 | R43F | -0.249 ± 0.45
2 | R43T | 0.018 ± 0.063
3 | R43C | -0.097 ± 0.33
4 | R43K | 0.017 ± 0.077
5 | V44N | -0.06 ± 0.13
6 | V44Y | -0.215 ± 0.34
7 | V44G | 0.188 ± 0.053
8 | V44A | 0.029 ± 0.086
9 | V44K | 0.18 ± 0.2
10 | V44S | 0.351 ± 0.086
11 | V44W | 0.112 ± 0.1
12 | V44E | -0.145 ± 0.11
13 | V44D | 0.24 ± 0.19
14 | V44R | 0.117 ± 0.051
15 | V44T | 0.263 ± 0.16
16 | V44P | 0.299 ± 0.12
17 | V44Q | 0.047 ± 0.1
18 | V44C | 0.316 ± 0.19
19 | K22W | 0.28 ± 0.078
20 | K22Q | -0.828 ± 0.16
21 | K22R | -0.354 ± 0.071
22 | K22Y | -0.354 ± 0.28
23 | K22S | -1.01 ± 0.22
24 | K22M | -0.153 ± 0.1

Row | Variant | abundance fitness
25 | K22P | -0.921 ± 0.16
26 | K22T | -0.207 ± 0.12
27 | K22V | 0.03 ± 0.059
28 | P33G | 0.279 ± 0.038
29 | P33V | 0.17 ± 0.039
30 | P33A | 0.047 ± 0.059
31 | P33E | -0.857 ± 0.24
32 | P33D | -1.07 ± 0.42
33 | P33F | 0.495 ± 0.096
34 | P33S | 0.022 ± 0.067
35 | P33L | 0.366 ± 0.049
36 | P33W | 0.322 ± 0.084
37 | P33Y | -0.378 ± 0.24
38 | P33Q | -0.429 ± 0.26
39 | P33I | 0.24 ± 0.39
40 | P33H | 0.107 ± 0.15
41 | P33T | -0.02 ± 0.16
42 | P33K | 0.035 ± 0.13
43 | Y23L | 0.279 ± 0.069
44 | Y23I | -0.034 ± 0.16
45 | Y23M | 0.051 ± 0.14
46 | Y23C | 0.167 ± 0.078
47 | Y23F | 0.296 ± 0.13
48 | Y23W | 0.177 ± 0.062

Row | Variant | abundance fitness
49 | Y23G | -0.42 ± 0.086
50 | Y23S | -0.528 ± 0.15
51 | Y23H | -0.128 ± 0.26
52 | Y23E | -0.897 ± 0.14
53 | Y23P | -1.06 ± 0.28
54 | Y23A | 0.068 ± 0.076
55 | Y23T | -0.379 ± 0.14
56 | Y23R | -0.726 ± 0.094
57 | Y23V | 0.39 ± 0.092
58 | Y23K | -0.803 ± 0.28
59 | Y23Q | -0.393 ± 0.099
60 | A28S | -0.129 ± 0.1
61 | A28W | -0.177 ± 0.11
62 | A28Y | -1.03 ± 0.39
63 | A28G | -0.101 ± 0.072
64 | A28C | -0.156 ± 0.13
65 | A28R | -0.036 ± 0.053
66 | A28I | -0.311 ± 0.49
67 | A28K | -0.094 ± 0.17
68 | A28M | -0.433 ± 0.16
69 | A28P | -0.424 ± 0.11
70 | A28V | -0.912 ± 0.18
71 | A28F | -0.116 ± 0.34
72 | A28T | 0.009 ± 0.08

Row | Variant | abundance fitness
73 | E42Y | -0.242 ± 0.19
74 | E42I | 0.053 ± 0.17
75 | E42H | -0.476 ± 0.24
76 | E42V | -0.012 ± 0.069
77 | E42A | -0.011 ± 0.073
78 | E42L | 0.164 ± 0.065
79 | E42G | 0.266 ± 0.05
80 | E42R | 0.122 ± 0.044
81 | E42Q | -0.056 ± 0.067
82 | E42W | 0.268 ± 0.094
83 | E42C | 0.044 ± 0.097
84 | E42F | 0.224 ± 0.11
85 | E42D | -0.031 ± 0.1
86 | E42N | 0.306 ± 0.14
87 | E42K | 0.227 ± 0.1
88 | E42T | 0.078 ± 0.11
89 | E42S | 0.186 ± 0.078
90 | E25I | -0.292 ± 0.18
91 | E25K | -0.144 ± 0.069
92 | E25T | -0.468 ± 0.093
93 | E25M | -0.409 ± 0.2
94 | E25R | -0.352 ± 0.06
95 | E25V | -0.475 ± 0.063
96 | E25L | -0.465 ± 0.084

Row | Variant | abundance fitness
97 | E25S | -0.238 ± 0.042
98 | E25F | -0.224 ± 0.12
99 | E25Y | -0.542 ± 0.12
100 | E25G | -0.384 ± 0.068
101 | E25Q | 0.015 ± 0.12
102 | E25A | -0.309 ± 0.092
103 | E25H | -0.749 ± 0.42
104 | L26F | 0.158 ± 0.1
105 | L26C | -0.047 ± 0.19
106 | L26E | -0.819 ± 0.15
107 | L26Q | -1.04 ± 0.21
108 | L26S | -0.77 ± 0.14
109 | L26V | -0.364 ± 0.079
110 | L26R | -0.872 ± 0.11
111 | L26H | -0.946 ± 0.17
112 | L26M | -0.298 ± 0.085
113 | L26Y | -0.306 ± 0.34
114 | L26T | -0.851 ± 0.13
115 | L26A | -0.661 ± 0.14
116 | L26N | -0.694 ± 0.19
117 | L26G | -0.667 ± 0.082
118 | L26D | -0.573 ± 0.19
119 | L26K | -0.279 ± 0.16
120 | L26W | -0.033 ± 0.067

Row | Variant | abundance fitness
121 | L26P | -0.652 ± 0.14
122 | F31A | -0.573 ± 0.18
123 | F31E | -0.46 ± 0.11
124 | F31R | -0.692 ± 0.09
125 | F31G | -0.862 ± 0.12
126 | F31N | -0.703 ± 0.2
127 | F31Q | -0.716 ± 0.24
128 | F31Y | -0.295 ± 0.35
129 | F31S | -0.699 ± 0.15
130 | F31V | -0.545 ± 0.079
131 | F31T | -0.949 ± 0.19
132 | F31I | -0.64 ± 0.32
133 | F31D | -0.946 ± 0.38
134 | F31C | -0.644 ± 0.15
135 | F31W | 0.194 ± 0.062
136 | F31L | -0.397 ± 0.12
137 | F31K | -0.752 ± 0.35
138 | A24P | -0.518 ± 0.33
139 | A24R | 0.178 ± 0.049
140 | A24F | -0.331 ± 0.17
141 | A24G | -0.446 ± 0.11
142 | A24M | -0.107 ± 0.13
143 | A24T | -0.115 ± 0.1
144 | A24S | -0.24 ± 0.1

Row | Variant | abundance fitness
145 | A24L | -0.352 ± 0.075
146 | A24V | -0.321 ± 0.095
147 | A24Q | -0.227 ± 0.12
148 | A24W | -0.569 ± 0.12
149 | A24E | -0.174 ± 0.1
150 | G38P | -0.279 ± 0.1
151 | G38Q | -0.076 ± 0.073
152 | G38I | -0.347 ± 0.18
153 | G38R | -0.145 ± 0.044
154 | G38M | -0.492 ± 0.11
155 | G38S | -0.234 ± 0.082
156 | G38D | -0.678 ± 0.14
157 | G38T | -0.061 ± 0.072
158 | G38W | -0.144 ± 0.061
159 | G38A | -0.202 ± 0.053
160 | G38C | -0.46 ± 0.16
161 | G38N | -0.195 ± 0.16
162 | G38F | -0.224 ± 0.13
163 | G38H | -0.151 ± 0.16
164 | G38Y | -0.8 ± 0.38
165 | G38K | -0.346 ± 0.1
166 | G38L | -0.458 ± 0.064
167 | G38E | -0.173 ± 0.088
